Test results taken from US20210403546A1 (LUDWIG INSTITUTE FOR CANCER RESEARCH, published 2021).

B1: LCR13A1_scFv (soluble scFv of murine 13A1) (scFv)
scFv: DIVLTQSPASLAVSLGQRATISCRASESVDNYGISFLNWFQQKPGQPPKLLIYAASNQGSGVPARFSGSGSGTDFSLNIHPMEEDDTGMYFCQQSKEVPRTFGGGTKLEIKRTVAARQEGGSGEGGSGESNAAAEVQLQQSGTVLARPGASVKMSCKTSGYTFTNYWMHWVRQRPGQGLEWIGTIYPGNSDTNYNQKFKDKAKLTAVTSATTAYMELSSLTNEDSAVYFCTREDSRSLYYNGWDYFDYWGQGTLVTVSSASTKAS
notes: Orientation VL-linker-VH; expressed in E. coli from pCHV101; also called LCR13A1 soluble scFv
B2: LCR13A1_VH_GLv1_03_LCR13A1_VK_GLv3 (LCR13A1-2B) IgG4[S228P] (antibody, V domains shown)
VH: QVQLVQSGSVLAKPGASVKVSCKASGYTFTNYWMHWVRQAPGQGLEWIGTIYPGNSDTNYNQKFKDRAKLTAVTSTSTVYMELSSLRSEDTAVYYCTREDSRSLYYNGWDYFDYWGQGTLVTVSS
VL: DIVMTQSPDSLAVSLGERATINCKSSESVDNYGISFLNWFQQKPGKAPKLLIYAASNQGSGVPDRFSGSGSGTDFTLTISSLQAEDVAVYFCQQSKEVPRTFGGGTKLEIKR
notes: VK + CK*01; also called Ab 2B
B3: LCR13A1_VH_GLv1_03_LCR13A1_VK_GLv1_05 (LCR13A1-2F) IgG4[S228P] (antibody, V domains shown)
VH: B2 VH
VL: DIVMTQSPDSLAVSLGERATISCRASESVDNYGISFLNWFQQKPGQPPKLLIYAASNQGSGVPSRFSGSGSGTDFTLNIHPLEAEDAATYYCQQSKEVPRTFGGGTKVEIKR
notes: VK + CK*01; also called Ab 2F; hIgG4 13A1-2F
B4: LCR13A1_VH_GLv1_03_LCR13A1_VK_GLv1_03 (LCR13A1-2D) IgG4(S228P) (antibody, V domains shown)
VH: B2 VH
VL: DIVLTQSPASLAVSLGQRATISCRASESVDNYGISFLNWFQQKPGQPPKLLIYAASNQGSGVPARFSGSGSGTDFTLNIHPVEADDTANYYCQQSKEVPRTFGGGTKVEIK
notes: Human IgG4 (IGHG4*01 with S228P) and human CK*01; also called Ab 2D
B5: LCR13A1_VH_GLv1_03_LCR13A1_VK_GLv1_04 (LCR13A1-2E) IgG4(S228P) (antibody, V domains shown)
VH: B2 VH
VL: DIVLTQSPASLAVSLGQRATISCRASESVDNYGISFLNWFQQKPGQPPKLLIYAASNQGSGVPSRFSGSGSGTDFTLNIHPLEAEDAAAYYCQQSKEVPRTFGGGTKVEIK
notes: Human IgG4 (IGHG4*01 with S228P) and human CK*01; also called Ab 2E
B6: LCR13A1_VH_GLv3_LCR13A1_VK_GLv3 (LCR13A1-2A) IgG4(S228P) (antibody, V domains shown)
VH: QVQLVQSGSELKKPGASVKVSCKTSGYTFTNYWMHWVRQAPGQGLEWIGTIYPGNSDTNYNQKFQGRVTITRDTSASTAYMELSSLRSEDTAVYFCTREDSRSLYYNGWDYFDYWGQGTTVTVSS
VL: DIVMTQSPDSLAVSLGERATINCKSSESVDNYGISFLNWFQQKPGKAPKLLIYAASNQGSGVPDRFSGSGSGTDFTLTISSLQAEDVAVYFCQQSKEVPRTFGGGTKLEIK
notes: Human IgG4 (IGHG4*01 with S228P) and human CK*01; also called Ab 2A
B7: LCR13A1_VH_GLv3_LCR13A1_VK_GLv1_03 (LCR13A1-2C) IgG4(S228P) (antibody, V domains shown)
VH: B6 VH
VL: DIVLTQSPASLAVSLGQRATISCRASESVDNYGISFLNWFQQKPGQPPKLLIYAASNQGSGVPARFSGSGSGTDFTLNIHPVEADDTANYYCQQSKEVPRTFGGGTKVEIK
notes: Human IgG4 (IGHG4*01 with S228P) and human CK*01; also called Ab 2C

biological target: T1, human recombinant TGF-b1 (human, UniProt P01137 279-390); test: ELISA, scFv culture on plate-coated TGF-b1, anti-cmyc detection
T1 construct: also called TGF-β1; hTGF-β1
T1 sequence (P01137 279-390 limits assumed): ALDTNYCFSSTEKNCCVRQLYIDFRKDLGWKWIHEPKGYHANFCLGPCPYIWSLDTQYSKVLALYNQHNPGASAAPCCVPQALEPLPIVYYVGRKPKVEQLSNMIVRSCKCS

Binding result, binds:
B1

biological target: T1, human recombinant TGF-b1; test: competition ELISA on hTGF-β1-coated plate; competitor biotinylated murine 13A1
Description: Nunc Maxisorb ELISA plates were coated overnight at 8° C. with 0.5 μg/ml hTGF-β1 (Peter Sun, NIH) or hTGF-β3 (Shenandoah Biotech) at 0.5 μg/ml in 40 mM glycine buffer pH 9. Plates were washed and blocked with 10% FCS for 1 h at 37° C. In a separate low binding Greiner Bio-One ELISA plate, various concentrations of competing Abs were mixed with a constant concentration of biotinylated parental 13A1 or 1901 at 200 ng/ml in PBS+BSA (10 mg/ml) and then transferred onto the TGF-β-coated Nunc Maxisorb ELISA plate. After incubation for 2 h at 37° C. plates were washed, Avidine-HRP added and incubated for 1 h at 37° C. Plates washed again, TMB substrate was added and bound biotinylated antibody was quantitated by measuring color development in an ELISA reader at a wave length of 450 nm.
The potency of the humanized LCR13A1 IgG4 antibody variants to compete with the parental murine antibody for binding to TGFb1 was assessed by ELISA. The six IgG4 variants LCR13A1_VH_GLv3_LCR13A1_VK_GLv3 (LCR13A1-2A), LCR13A1_VH_GLv1_03_LCR13A1_VK_GLv3 (LCR13A1-2B), LCR13A1_VH_GLv3_LCR13A1_VK_GLv1_03 (LCR13A1-2C), LCR13A1_VH_GLv1_03_LCR13A1_VK_GLv1_03 (LCR13A1-2D), LCR13A1_VH_GLv1_03_LCR13A1_VK_GLv1_04 (LCR13A1-2E) and LCR13A1_VH_GLv1_03_LCR13A1_VK_GLv1_05 (LCR13A1-2F) competed with the parental murine 13A1 antibody for binding to TGFb1 in a dose-dependent manner (FIG. 17).

Binding result, binds:
B2
B3
B4
B5
B6
B7
